Earlier results as cited in patent publication US20040115213A1, “Use of IL-2 receptor antibodies” (priority 2002, published 2004).

What was measured:
[1] = patients given amphotericin-B
[2] = monkeys; Hakimi et al.
[3] = human patients

## CC1OC(O[C@H]2/C=C/C=C/C=C/C=C/C=C/C=C/C=C/[C@H](C)[C@@H](O)[C@@H](C)[C@H](C)OC(=O)C[C@H](O)C[C@H](O)CC[C@@H](O)[C@H](O)C[C@H](O)C[C@]3(O)C[C@H](O)C(C(=O)O)[C@H](C2)O3)C(O)C(N)C1O (stereo partly drawn) [amphotericin-B, [1R-(1 R *,3 S *, 5 R *, 6 R *,9 R *,11 R *,15 S *,16 R *,17 R *,18 S *, 19 E,21 E, 23 E,25 E, 27 E,29 E,31 E,33 R *,35 S *,36 R *,37 S *)]-33-[(3-Amino-3,6-dideoxy-(beta)-D-mannopyranosyl)oxy]-1,3,5,6,9,11,17,37-octahydroxy-15,16,18-trimethyl-13-oxo-14,39-dioxabi-cyclo[33.3.1]nonatriaconta-19,21,23,25,27,29,31-heptaene-36-carboxylic acid]
[1]
  patients experiencing some degree of nephrotoxicity: Over 80%

## humanized anti-Tac: humanized monoclonal antibody that binds to the p55 subunit of the human IL-2 receptor, described in U.S. Pat. No. 5,530,101
[2]
  immunogenicity relative to mouse antibody: reduced immunogenicity relative to mouse anti-Tac
[3]
  immunogenicity (HAMA response): (essentially) non-immunogenic
